The text below walks through data of patent US20140256912A1, “Stabilized Variant MAML Peptides and Uses Thereof” (PRESIDENT AND FELLOWS OF HARVARD COLLEGE, priority 2011, published 2014).

The target of assay [1] is GST-RAMANK1-CSL complex (human) (UniProt P46531). Kind of assay: ALPHAscreen competition against Bio-sdnMAML1 binding to GST-RAMANK1-CSL.
The target is the same in assay [2]. The assay is described as follows: ALPHAscreen, 40 nM of all partners.
Assay [3] has the same target. Kind of assay: ALPHAscreen titration matrix, binding components in the range of 10-100 nM.
For assay [4], the target named is equimolar RAMANK1-CSL complex (human) (UniProt P46531). Kind of assay: SPR (Biacore 3000), peptide immobilised on a streptavidin chip, equimolar RAMANK1 and CSL injected; bio-sdnMAML1, residues 16-70.
In assay [5] the target is ICN1-CSL complex (Homo sapiens, UniProt P46531+Q06330). The note with it: cited from earlier work.
ICN1-CSL complex, sequence (P46531 1754-2555 limits assumed): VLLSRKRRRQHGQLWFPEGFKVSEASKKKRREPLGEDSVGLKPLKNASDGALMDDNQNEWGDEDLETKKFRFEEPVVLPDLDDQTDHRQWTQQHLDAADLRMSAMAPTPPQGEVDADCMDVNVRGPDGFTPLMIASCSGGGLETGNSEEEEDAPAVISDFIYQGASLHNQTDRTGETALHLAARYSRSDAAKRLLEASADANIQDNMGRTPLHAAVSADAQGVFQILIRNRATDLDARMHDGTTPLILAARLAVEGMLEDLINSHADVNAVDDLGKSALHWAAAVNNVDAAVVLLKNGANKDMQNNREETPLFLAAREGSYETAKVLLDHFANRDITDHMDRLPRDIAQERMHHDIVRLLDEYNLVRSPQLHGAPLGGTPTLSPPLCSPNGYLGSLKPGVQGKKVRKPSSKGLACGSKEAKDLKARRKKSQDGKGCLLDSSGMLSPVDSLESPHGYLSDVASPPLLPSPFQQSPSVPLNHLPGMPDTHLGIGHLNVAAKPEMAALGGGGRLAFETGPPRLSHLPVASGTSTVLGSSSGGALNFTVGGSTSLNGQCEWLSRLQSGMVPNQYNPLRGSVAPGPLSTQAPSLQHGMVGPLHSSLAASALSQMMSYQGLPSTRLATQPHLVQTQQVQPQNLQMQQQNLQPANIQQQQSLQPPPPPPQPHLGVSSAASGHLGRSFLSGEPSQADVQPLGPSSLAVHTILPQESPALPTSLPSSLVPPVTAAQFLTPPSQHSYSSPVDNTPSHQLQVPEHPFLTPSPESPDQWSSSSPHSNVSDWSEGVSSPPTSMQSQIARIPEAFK
ICN1-CSL complex, sequence (Q06330 whole entry): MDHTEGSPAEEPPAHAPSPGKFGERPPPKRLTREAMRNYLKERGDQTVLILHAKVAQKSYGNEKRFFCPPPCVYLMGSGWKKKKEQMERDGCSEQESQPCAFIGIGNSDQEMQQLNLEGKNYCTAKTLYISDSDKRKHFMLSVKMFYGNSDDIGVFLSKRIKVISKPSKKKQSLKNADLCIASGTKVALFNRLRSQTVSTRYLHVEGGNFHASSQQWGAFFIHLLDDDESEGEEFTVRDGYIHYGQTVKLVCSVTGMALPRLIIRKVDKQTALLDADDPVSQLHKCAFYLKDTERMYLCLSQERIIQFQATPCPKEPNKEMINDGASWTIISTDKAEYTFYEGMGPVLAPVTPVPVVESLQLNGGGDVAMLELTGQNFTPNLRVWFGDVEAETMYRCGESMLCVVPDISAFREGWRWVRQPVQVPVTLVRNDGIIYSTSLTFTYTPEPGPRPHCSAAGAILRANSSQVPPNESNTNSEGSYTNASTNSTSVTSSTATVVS
In assay [6] the test system is Notch target genes (HES1, MYC, DTX1). The note with it: incubated with human T-ALL cells; cited from earlier work.
Assay [7] addresses equimolar RAMANK1-CSL complex (human) (UniProt P46531). The assay is described as follows: SPR, preformed RAMANK1-CSL complex.
The target is the same in assay [8]. The assay is described as follows: SPR (Biacore 3000), peptide immobilised on a streptavidin chip, equimolar RAMANK1 and CSL injected; bio-nt-sdnMAML1, residues 16-45.
For assay [9], the target named is T1, Bio-sdnMAML1 binding to GST-RAMANK1-CSL (Homo sapiens, UniProt P46531+Q06330).
T1 construct: RAMANK1 (residues 1761-2127) and GST-labeled RAMANK1; Human CSL bearing a C-terminal hexahistidine tag (residues 9-435); hexahistidine (His6) (C); made in house; host or cells: E. coli BL21(DE3) pLysS (proteins); solid-phase peptide synthesis (Bio-sdnMAML1)
T1 sequence (P46531 1760-2126): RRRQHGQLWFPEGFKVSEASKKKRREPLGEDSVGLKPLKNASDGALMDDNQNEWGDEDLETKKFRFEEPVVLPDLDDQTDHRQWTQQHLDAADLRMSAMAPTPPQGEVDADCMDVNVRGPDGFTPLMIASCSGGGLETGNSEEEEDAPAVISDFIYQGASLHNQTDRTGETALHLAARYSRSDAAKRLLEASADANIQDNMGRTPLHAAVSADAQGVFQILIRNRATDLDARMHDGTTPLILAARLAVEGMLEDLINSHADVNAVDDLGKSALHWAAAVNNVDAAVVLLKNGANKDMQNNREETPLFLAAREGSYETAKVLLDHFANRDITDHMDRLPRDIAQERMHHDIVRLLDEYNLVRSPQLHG
T1 sequence (Q06330 23-449): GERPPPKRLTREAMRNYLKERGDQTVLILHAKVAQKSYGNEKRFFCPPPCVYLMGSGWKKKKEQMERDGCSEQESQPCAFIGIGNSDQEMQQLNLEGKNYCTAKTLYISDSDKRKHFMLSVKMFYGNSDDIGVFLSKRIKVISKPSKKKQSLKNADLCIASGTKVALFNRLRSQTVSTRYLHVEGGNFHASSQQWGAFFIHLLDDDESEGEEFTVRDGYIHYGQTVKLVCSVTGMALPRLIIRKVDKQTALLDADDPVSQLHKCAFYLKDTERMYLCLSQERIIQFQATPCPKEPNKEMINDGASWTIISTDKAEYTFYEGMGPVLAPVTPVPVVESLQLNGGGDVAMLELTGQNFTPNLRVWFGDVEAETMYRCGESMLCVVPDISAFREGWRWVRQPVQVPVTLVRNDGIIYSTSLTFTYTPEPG
The assay is described as follows: ALPHAscreen NTC competition assay. The note with it: titration of unlabeled peptide (FIG. 2h). The source says: The biophysics of NTC assembly has been studied using relatively low-throughput assays including electrophoretic-mobility shift assays^24, isothermal titration calorimetry^49, and various immunoprecipitation strategies. More recently, Del Bianco et al. reported the use of a FRET-based system measuring the proximity of a donor fluorophore-labeled ANK protein to an acceptor-labeled oligonucleotide upon NTC assembly, which allowed determination of relative equilibrium constants for the entire complex^45. We also reported the use of surface plasmon resonance (SPR) and fluorescence polarization assays measuring the association of NTC components with each other and with stapled peptides^37. To date however, there are no high-throughput assays reported that quantitatively measure dnMAML1-NOTCH-CSL complex formation. […] The ALPHAscreen technology (ALPHA meaning amplified luminescence proximity homogenous assay) employs functionalized beads approximately 200 nm in diameter to detect the association of cognate binding partners in solution^50,51. […] The use of microwave-assisted peptide synthesis and a slightly altered SPPS protocol readily afforded the biotinylated sdnMAML1 peptide (bio-sdnMAML1, and others with alternative N-terminal modifications) at greater than 95% purity by LCMS analysis (FIG. 2b, FIG. 7). […]

In assay [10] the target is equimolar RAMANK1-CSL complex (human) (UniProt P46531). The assay is described as follows: SPR (Biacore 3000), peptide immobilised on a streptavidin chip, equimolar RAMANK1 and CSL injected; bio-SAHM1, stapled peptide.
Assay [11] concerns the target GST-RAMANK1-CSL complex (human) (UniProt P46531). Kind of assay: ALPHAscreen NTC competition: peptide titrated against Bio-sdnMAML1 binding to GST-RAMANK1-CSL; IC50 with 95% CI.
In assay [12] the target is NOTCH1-CSL transactivation complex in U2OS cells transfected with the truncated, constitutively activated ΔEGFΔLNR-NOTCH1 allele, P46531. Kind of assay: cell-based or functional assay.

Bridge positions count the residues as written; N and C are the ends. Square brackets hold non-standard residues; d marks the D form. Ends that are not written are not given here. dPhe(F5) = N[C@H](Cc1c(F)c(F)c(F)c(F)c1F)C(=O)O; 1Nal = N[C@@H](Cc1cccc2ccccc12)C(=O)O; 2Nal = N[C@@H](Cc1ccc2ccccc2c1)C(=O)O; S5 = C=CCCC[C@](C)(N)C(=O)O; I_N = not defined here; βAla = NCCC(=O)O

With “unlabeled Ac-sdnMAML1 peptide (from UniProt Q92585 16-70)”, the IC50 (read off the curve) in assay [1] is 100 nM.
Turning to “synthetic, biotinylated dnMAML1 (Bio-sdnMAML1, residues 16-70) (from UniProt Q92585 16-70) (peptide)”, in [2], the signal-to-noise ratio came out at 30 fold. Further, in assay [3], the ALPHAscreen luminescent signal (maximum) stood at 45000 c.p.s. The Kd in assay [4] was 40 nM.
“SAHM1: stapled MAML1 E21-T36 peptide with E28 and R32 replaced by i→i+4 ligated α,α-disubstituted S5 amino acids; previously reported (Ac-W[βAla]ERLRRRI[S5]LCR[S5]HHST; staple 10-14)”: the “binding to ICN1-CSL complex and competition with MAML1” value in assay [5] was “specifically bind the ICN1-CSL complex and competitively inhibit binding of recombinant dnMAML1 as well as full-length MAML1”. Further, the “expression of canonical Notch target genes” value in assay [6] is listed as “inhibit the expression of a panel of canonical Notch target genes”.
In turn, “bio-nt-sdnMAML1 (residues 16-45), N-terminal helix of dnMAML1 (from UniProt Q92585 16-45) (peptide)” displayed a fold decrease in affinity against s-dnMAML1 in assay [7] of 10 fold. Also, in assay [8], the Kd came out at 400 nM.
“Ac-sdnMAML1: non-labeled competitor dnMAML1 peptide capped with an acetylated beta-alanine spacer ({Ac-βAla}-HSAVMERLRRRIELCRRHHSTCEARYEAVSPERLELERQHTFALHQRCIQAKAKR; staple (positions not given here); also: stapled, staple positions not given here)”: the “dissociation of pre-incubated bio-sdnMAML1-GSTRAMANK1-CSL complex” value in [9] is on record as “dose-dependent dissociation of the complex”.

B1: Bio-SAHM1 (biotinylated stapled MAML1 E21-T36 peptide) (peptide, UniProt Q92585 21-36, looked up)
peptide: ERLRRRI[S5]LCR[S5]HHST
modifications: staple 8-12; not fully specified (N-terminus); also: biotin label, linker not described
In assay [10], B1 displayed a Kd of 100 nM.

B2: SAHM1-51 (peptide)
peptide: Ac-W[βAla]ERWRRRL[S5]LCR[S5]HHSTCEAR[1Nal]
modifications: staple 10-14; cysteine pairing not given here
Regarding B2, the IC50 in assay [11] amounted to 360 nM.

B3: SAHM1-62 (E21-Y41 scaffold with L23W, L29Y, C30F, C37 D-pentafluoro-Phe and Y41 1-naphthylalanine), Q92585 21-41 (peptide)
peptide: Ac-W[βAla]ERWRRRI[S5]YFR[S5]HHST[dPhe(F5)]EAR[1Nal]
modifications: staple 10-14
In assay [12], B3 had an EC50, NOTCH1-driven CSL-luciferase dual reporter in U2OS cells of 5000 nM and a fold lower IC50 than SAHM1, NOTCH1 reporter gene assay of 4 fold.

B4: SAHM1-43 (peptide)
peptide: Ac-W[βAla]ERWRRRL[S5]WCR[S5]HHST[dPhe(F5)]EARY
modifications: staple 10-14
In assay [11], B4 came in with an IC50 of 780 nM.

B5: SAHM1-60 (peptide)
peptide: Ac-W[βAla]ERWRRRL[S5]YFR[S5]HHST[dPhe(F5)]EARY
modifications: staple 10-14
B5 had an IC50 in assay [11] of 450 nM.

B6: SAHM1-61 (peptide)
peptide: Ac-W[βAla]ERWRRRL[S5]YFR[S5]HHSTCEAR[1Nal]
modifications: staple 10-14
For the molecule B6, the IC50 in assay [11] turned out to be 440 nM.

B7: SAHM1-62 (E21-Y41 scaffold with L23W, L29Y, C30F, C37 D-pentafluoro-Phe and Y41 1-naphthylalanine) (peptide)
peptide: Ac-W[βAla]ERWRRRI[S5]YFR[S5]HHST[dPhe(F5)]EAR[1Nal]
modifications: staple 10-14
In the case of B7, the IC50 in [11] stood at 320 nM.

B8: SAHM1-25 (E21-Y41 scaffold, L23W/C30F double mutant), Q92585 21-41 (peptide)
peptide: Ac-W[βAla]ERWRRRI[S5]LFR[S5]HHSTCEARY
modifications: staple 10-14
For the molecule B8, in assay [12], the EC50, NOTCH1-driven CSL-luciferase dual reporter in U2OS cells was 10000 nM and the fold lower IC50 than SAHM1, NOTCH1 reporter gene assay is 2 fold.

B9: SAHM1-50 (peptide)
peptide: Ac-W[βAla]ERWRRRL[S5]LCR[S5]HHSTCEAR[2Nal]
modifications: staple 10-14; cysteine pairing not given here
In [11], B9 showed an IC50 of 410 nM.

B10: SAHM1-35 (peptide)
peptide: Ac-W[βAla]ERWRRRL[S5]LFR[S5]HHST[dPhe(F5)]EARY
modifications: staple 10-14
On to B10, for which, in assay [11], the IC50 came to 1200 nM.

B11: SAHM1-52 (peptide)
peptide: Ac-W[βAla]ERWRRRL[S5]LCR[S5]HHST[I_N]EARY
modifications: staple 10-14; reading uncertain
As for B11, the IC50 in assay [11] worked out at 610 nM.
